Laboratory results published in US20250171542A1 (ADEPT THERAPEUTICS, published 2025).
Residue numbers refer to the chain shown, from its start. Each block holds one binder with its values, some of them ahead of it.

Key:
[1] = molecular target: T1, human PD-L1-mFc fusion protein (Sino Biological, Cat #10084-H05H) (human, UniProt Q9NZQ7 19-239); test: competition ELISA, coated human PD-L1-mFc, competitor human PD-1-His-hFc-Biotin
T1 construct: Bought protein; also called human PD-L1 mouse Fc fusion protein; not shown: mouse Fc
T1 sequence (Q9NZQ7 19-239 limits assumed): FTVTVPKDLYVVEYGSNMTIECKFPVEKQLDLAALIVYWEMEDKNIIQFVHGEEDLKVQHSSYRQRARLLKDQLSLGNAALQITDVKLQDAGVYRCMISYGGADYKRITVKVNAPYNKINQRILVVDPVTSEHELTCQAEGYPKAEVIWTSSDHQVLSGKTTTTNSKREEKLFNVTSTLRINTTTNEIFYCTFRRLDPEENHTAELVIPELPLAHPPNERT
Procedure: Briefly, microplates were precoated with […] of human PD-L1-mFc fusion protein (Sino Biological, Cat #10084-H05H) diluted in 1×PBS (GIBCO) and incubated overnight at 4° C.; Plates were washed four times with 300 μl/well washing buffer (1×PBST, diluted from 20×PBST (Thermo Scientific) with distilled water)) and then blocked with 300 μl/well of blocking buffer (1×PBST/3% BSA) for 2 hours at RT on shaker (100 rpm). […] Plates were washed and added with 100 μl/well TMB substrate for color development at room temperature in dark for up to 10 minutes. After addition of 50 μl/well of stop solution (1N H₂SO₄), plates were read at 450 nm on a plate reader (SpectraMax M5).

[2] = molecular target: T2, cynomolgus PD-L1-His (Sino Biological, Cat. 90251-C08H) (cynomolgus, UniProt Q9NZQ7 19-238 (human entry)); test: ELISA, coated cyno PD-L1-His
T2 construct: Bought protein; also called Cyno PD-L1; Cynomolgus PD-L1 ECD-His; not shown: His tag
T2 sequence (Q9NZQ7 other isoform, or with tags, fused parts or gaps C08H C08H limits assumed): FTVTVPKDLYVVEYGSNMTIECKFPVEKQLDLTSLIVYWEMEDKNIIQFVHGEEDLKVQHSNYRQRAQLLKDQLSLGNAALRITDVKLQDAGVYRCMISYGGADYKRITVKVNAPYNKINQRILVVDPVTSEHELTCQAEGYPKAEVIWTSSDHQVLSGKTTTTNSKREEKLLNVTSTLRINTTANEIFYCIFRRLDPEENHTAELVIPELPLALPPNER
Procedure: Briefly, Maxisorp plates (Nunc) were coated with 100 ul/well of 0.5 μg/ml human PD-L1-His (Sino Biological, Cat #10084-H08H) or cynomolgus PD-L1-His (Sino Biological, Cat. 90251-C08H) protein diluted in 1×PBS (GIBCO) overnight at 4° C. Plates were washed three times with 300 μl/well washing buffer (1×PBST, diluted from 20×PBST (Thermo Scientific) with distilled water)) and then blocked with 300 μl/well of blocking buffer (1×PBST/I % BSA) for 2 hours at RT on shaker (100 rpm). Plates were washed and added with 100 μl/well of testing antibodies, which were serial diluted with assay buffer (PBST/1% BSA). The antibodies were incubated at room temperature for 2 hours on plate shaker at 100 rpm. Plates were washed. One hundred microliter of horseradish peroxidase (HRP) conjugated detection antibody was added into each well and incubated at room temperature for 1 hour on plate shaker at 100 rpm. Plates were washed and added with 100 μl/well TMB substrate for color development at room temperature in dark for up to 10 minutes. After addition of 50 μl/well of stop solution (1N H₂SO₄), plates were read at 450 nm on a plate reader (SpectraMax M5).
(§1) Anti-HEL isotype control (Biolntron) was used as negative control.

[3] = molecular target: T3, human PD-L1 expressed on cell surface (human, UniProt Q9NZQ7 19-290); test: flow cytometry, MDA-MB-231-GFP cells
T3 construct: also called cell surface PD-L1
T3 sequence (Q9NZQ7 19-290 limits assumed): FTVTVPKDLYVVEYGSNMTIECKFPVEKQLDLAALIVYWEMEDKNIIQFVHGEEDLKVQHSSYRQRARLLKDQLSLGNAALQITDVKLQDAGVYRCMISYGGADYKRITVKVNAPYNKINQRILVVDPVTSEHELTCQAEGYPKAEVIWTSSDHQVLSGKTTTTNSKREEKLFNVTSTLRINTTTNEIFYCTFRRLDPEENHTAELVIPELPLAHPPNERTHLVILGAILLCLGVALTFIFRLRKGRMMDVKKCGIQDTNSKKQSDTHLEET
Procedure: Cells were then resuspended in FACS buffer (1×DPBS/1% FBS) at 10⁶/ml concentration. One hundred microliter (100 μl) of cells were aliquoted into a single well in 96 well plates. The antibodies to be tested were serially diluted at 1:3 fold starting at 15 ug/mL and were then added into each well. The antibodies were mixed with cells and the mixtures were incubated on ice for 1 hour. […] After washing with FACS buffer, stained cells were resuspended at diluted […] (Biolegend, Cat #420404, used at 1:100 dilution) and analyzed on Guava 11HT (Luminex). Data was analyzed using Flowjo software.
as §1

[4] = molecular target: T3, human PD-L1 expressed on cell surface; test: cell-based or functional assay
[5] = molecular target: mouse PD-L1 (Sino Biological, Cat #50010-M08H) (mouse, UniProt Q9EP73 19-238); test: ELISA
mouse PD-L1 (Sino Biological, Cat #50010-M08H), sequence (Q9EP73 19-238 limits assumed, stated change not applied): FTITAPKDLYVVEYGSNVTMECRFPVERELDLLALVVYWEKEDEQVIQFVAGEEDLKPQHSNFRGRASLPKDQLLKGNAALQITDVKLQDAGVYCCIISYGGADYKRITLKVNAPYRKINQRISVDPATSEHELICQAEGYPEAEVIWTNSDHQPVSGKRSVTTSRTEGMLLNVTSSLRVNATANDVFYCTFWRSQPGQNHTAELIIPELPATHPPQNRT

[6] = molecular target: T4, human PD-L1-His (Sino Biological, Cat #10084-H08H) (human, UniProt Q9NZQ7 19-238); test: BLI (Gator), antibody on HFC probe, human PD-L1-His in solution
T4 construct: Bought protein; also called human PD-L1 ECD-His; recombinant human PD-L1-His protein; not shown: His tag
T4 sequence (Q9NZQ7 19-238): as the sequence (Q9NZQ7 other isoform, or with tags, fused parts or gaps C08H C08H limits assumed) above, with T33A, S34A, N62S, Q68R, R82Q, L173F, A185T, I192T, L215H counted along it
Procedure: The affinity of the binding of the exemplary anti-PD-L1 antibodies of the present disclosure was determined. Assay was performed according to the protocol recommended by Gator or Gator Plus (Gator Bio Inc.). Briefly, human PD-L1-His (Sino Biological, Cat #10084-H08H) was serially diluted 4-fold, starting at 4 μg/ml. After three times of regeneration in generation buffer (Gator Bio, Cat #120012) and neutralization of HFC probe (Gator Bio, Cat #160003), 1 μg/ml of antibody to be tested in Q buffer (Gator Bio, Cat #120010) was immobilized onto HFC probe. After a baseline step, probe immobilized with antibody was dipped into antigen solutions. The association and dissociation of antigen from antibody was measured on BLI machine Gator. Affinity was calculated using Gator Bio analysis software.
Table 22 below summarizes the binding affinity to human PD-L1 using Gator.

[7] = molecular target: T3, human PD-L1 expressed on cell surface; test: cell-based or functional assay; remark: listed apart in the source

IC50 [1]: 1900 pM
EC50 [2]: 11.3 pM
EC50 [3]: 140 pM
IC50 (nM), Promega PD-1/PD-L1 blockade reporter assay [4]: 0.23 nM
binding result [5]: no binding
Kd [6]: 60 pM
koff [6]: 3.6e-05 s⁻¹
kon [6]: 643000 M⁻¹ s⁻¹
IC50 (nM), Promega PD-1/PD-L1 blockade reporter assay, another assay [7]: 0.35 nM
B1: 27A2 (antibody, human IgG1, V domains shown)
VH: QEQLEESGGGLVQPEGSLTLTCTASGFSFSSNHYMSWVRQAPGKGLEWIGSIGVGSGITDYASWAKGRFTISKASSTTLTLQMTTLTAADTAIYFCARWTSGGGGFGLWGPGTLVTVSS
VL: QVLTQTSSPVSAAVGGTVTINCQSSQTIYSDYLFWYQQTPGQPPKLLIYQTSTLASGVPSRFKGSGSGTEFTLTISEIQCDDAATYYCQGYYSGYIWTFGGGTEVVVR

EC50 [2]: 12.5 pM
EC50 [3]: 1440 pM
binding result [5]: no binding
Kd [6]: 360 pM
koff [6]: 0.000238 s⁻¹
kon [6]: 648000 M⁻¹ s⁻¹
B2: 74F4 (antibody, human IgG1, V domains shown)
VH: QEQLEESGGGLVQPEGSLTLTCTASGFSFSGDYYMSWVRQAPGKGLEWIASIYTGSLNTYYATWAKGRFTISLTSSTTVTLQMTSLTAADTATYFCARRNKNADYGHFDLWGPGTLVTVSS
VL: YDMTQTPASVEVAVGGTVTIKCQASQSINDRLAWYQQSPGQPPKLLIYGASTLASGVPSRFKGSGSGTDFTLTISDLECADAATYYCQQGWTVSSLDNAFGGGTEVVAK

EC50 [2]: 12.6 pM
EC50 [3]: 2930 pM
IC50 (nM), Promega PD-1/PD-L1 blockade reporter assay [4]: 0.97 nM
binding result [5]: no binding
Kd [6]: 640 pM
koff [6]: 0.000317 s⁻¹
kon [6]: 498000 M⁻¹ s⁻¹
B3: 55H3/76D6 (antibody, human IgG1, V domains shown)
VH: B2 VH with A24V, I49V, T59S
VL: B2 VL with Q26E, S38K, G49A, K62R, K109M

EC50 [2]: 7.8 pM
EC50 [3]: 1290 pM
IC50 (nM), Promega PD-1/PD-L1 blockade reporter assay [4]: 0.41 nM
binding result [5]: no binding
Kd [6]: 750 pM
koff [6]: 0.00056 s⁻¹
kon [6]: 748000 M⁻¹ s⁻¹
B4: 56E5 (antibody, human IgG1, V domains shown)
VH: B2 VH with N100H
VL: B2 VL with A8G, S38T, D69E

EC50 [2]: 17.7 pM
EC50 [3]: 2000 pM
binding result [5]: no binding
Kd [6]: 9090 pM
koff [6]: 0.00653 s⁻¹
kon [6]: 718000 M⁻¹ s⁻¹
B5: 69D10 (antibody, human IgG1, V domains shown)
VH: B2 VH with Y33W, T54S, I71V
VL: B2 VL with N29G, D30N, R31A, S38K, G49A, A50T, D69E, A80G

EC50 [2]: 13.8 pM
EC50 [3]: 1240 pM
binding result [5]: no binding
Kd [6]: 310 pM
koff [6]: 0.000113 s⁻¹
kon [6]: 371000 M⁻¹ s⁻¹
B6: 57F11 (antibody, human IgG1, V domains shown)
VH: B2 VH with Q3H, S17A, L73I, T74A, M83V, N100T, A103G, H107Y
VL: B2 VL with S38K, G49A, D69E, D97E

EC50 [2]: 7.1 pM
EC50 [3]: 4820 pM
IC50 (nM), Promega PD-1/PD-L1 blockade reporter assay [4]: 0.47 nM
binding result [5]: no binding
Kd [6]: 90 pM
koff [6]: 7.7e-05 s⁻¹
kon [6]: 810000 M⁻¹ s⁻¹
B7: 57B10 (antibody, human IgG1, V domains shown)
VH: B2 VH with G31D, Y105W
VL: B2 VL with N29S, D30T, R31A, S38K, G49A, K62R, K109M

EC50 [2]: 12.1 pM
EC50 [3]: 1810 pM
binding result [5]: no binding
Kd [6]: 120 pM
koff [6]: 9.39e-05 s⁻¹
kon [6]: 804000 M⁻¹ s⁻¹
B8: 73C8 (antibody, human IgG1, V domains shown)
VH: B2 VH with A24V, I49V
VL: B2 VL with S38K, G49A, K62R, K109M

EC50 [2]: 18.8 pM
EC50 [3]: 2030 pM
IC50 (nM), Promega PD-1/PD-L1 blockade reporter assay [4]: 0.41 nM
binding result [5]: no binding
Kd [6]: 430 pM
koff [6]: 0.000342 s⁻¹
kon [6]: 788000 M⁻¹ s⁻¹
B9: 62E6 (antibody, human IgG1, V domains shown)
VH: B2 VH with G10D, Q13K, T59I
VL: B2 VL with S38K, G40R, D69E, A80V

IC50 [1]: 2100 pM
EC50 [2]: 13 pM
EC50 [3]: 340 pM
IC50 (nM), Promega PD-1/PD-L1 blockade reporter assay [4]: 0.52 nM
binding result [5]: no binding
Kd [6]: 610 pM
koff [6]: 0.000329 s⁻¹
kon [6]: 536000 M⁻¹ s⁻¹
B10: 33H7 (antibody, human IgG1, V domains shown)
VH: QEQLVESGGGLVQPEGSLTVTCTASGFDLSRYFYMSWVRQAPGKGLEWIASISTGSDITDYASWAKGRFTISKTSSTTVTLQMTTLTAADTAIYFCARWTSGGGGFGLWGPGTLVTVSS
VL: QVLTQTASPVSAAVGGTVTLNCQSSQSIYNNYLSWYQQRAGQPPKLLIYSTATLASGVPSRFKGSGSGTQFTLTISEIQCEDAATYYCQGYYSGYIWTFGGGTEVVVK

IC50 [1]: 2300 pM
EC50 [2]: 19.8 pM
EC50 [3]: 340 pM
IC50 (nM), Promega PD-1/PD-L1 blockade reporter assay [4]: 0.29 nM
binding result [5]: no binding
Kd [6]: 360 pM
koff [6]: 0.000234 s⁻¹
kon [6]: 643000 M⁻¹ s⁻¹
IC50 (nM), Promega PD-1/PD-L1 blockade reporter assay, another assay [7]: 0.46 nM
B11: 74A9 (antibody, human IgG1, V domains shown)
VH: QSVEESGGRLVTPGTPLTLTCAVSGFSLSTYALGWVRQAPGKGLEWIGSISIGGATYYASWAKGRFTISKTSTTVDLKIASPTTEDTATYFCARNVDSIYLDAFHTWGPGTLVTVSL
VL: DIVMTQTPASVEAAVGGTVTIKCQASQNIYNNLAWYQQKPGQPPKLLIYRASTLASGVPSRFKGSGSGTEYTLTISDLECDDAATYYCQTYYLTTTTNAFGGGTEVVVK

IC50 [1]: 7500 pM
EC50 [2]: 179 pM
EC50 [3]: 18500 pM
binding result [5]: no binding
Kd [6]: 310 pM
koff [6]: 0.000113 s⁻¹
kon [6]: 371000 M⁻¹ s⁻¹
B12: 32E2 (antibody, human IgG1, V domains shown)
VH: QEQLEESGGDLVKPEGSLTLTCTASGFSFSSSYYMSWVRQAPGMGLEWIASISGGVTDNAYYASWAKGRFTVSKTSSTTVTLQLTSLTAADTATYFCARDSSSGYFFLLWGPGTLVTVSS
VL: LVMTQTPSSVSAAVGGTVTINCQASQNIYSNLAWYQQKPGQRPKLLIFGASNLRSGVPSRFKGSGSGTEYTLTISDLECADAATYYCQEGYSIGNVDNPFGGGTEVVVK

IC50 [1]: 3100 pM
EC50 [2]: 41.4 pM
EC50 [3]: 1190 pM
binding result [5]: no binding
Kd [6]: 1160 pM
koff [6]: 0.000418 s⁻¹
kon [6]: 361000 M⁻¹ s⁻¹
IC50 (nM), Promega PD-1/PD-L1 blockade reporter assay, another assay [7]: 0.38 nM
B13: 33E8 (antibody, human IgG1, V domains shown)
VH: QSLEESGGDLVKPGASLTLTCTASGFYFSSGYDMSWVRQAPGKGLEWIASIFTTSGSTWYANWAKGRFTISKTSSTTVTLQMTSLTDADTATYFCTKDGVGSFYMNLWGPGTLVTVSS
VL: LVMTQTPASVEVAVGGTVTIKCQASQTIGSNLAWYQQRPGQPPKLLIYKAFTLASGVSSRFKGSGSGTQFTLTISGVECADAATYYCQQGATRINIDNAFGGGTEVVVK
